The record followed here is patent US20110117113A1, “IMMUNOGLOBULIN SINGLE VARIABLE DOMAIN DIRECTED AGAINST HUMAN CXCR4 AND OTHER CELL ASSOCIATED PROTEINS AND METHODS TO GENERATE THEM” (priority 2009, published 2011).

Experiment [1] has as its target T1, wildtype human CXCR4 (pcDNA3.1-CXCR4, expressed in HEK293T) (human, UniProt P61073 1-352).
T1 construct: whole, on cells; also called hCXCR4; HEK293T CXCR4
Put plainly: competition with [125I]-238D4, HEK293T-CXCR4 membranes.

For experiment [2], the target named is all CXCR4 library clones containing a mutation at E179. Put plainly: immunofluorescence, average over all clones with a mutation at E179.
Experiment [3] concerns the target T2, CXCR4 (Homo sapiens, UniProt P61073).
T2 construct: expressed in transfected cells; host or cells: HEK293T, transient; membrane fraction
Put plainly: Competition binding, displacement of [^125I]-238D2 on membranes from HEK293T cells transiently expressing CXCR4. The settings on record: mean ± S.E.M. As for the experimental part: Iodine incorporation and specific activity were controlled via precipitation of the protein with trichloroacetic acid.
Competition binding assay—Periplasmic fractions were screened in a competition binding assay using membranes from HEK293T cells transiently expressing CXCR4. […] Membranes were then harvested over polyethylenimine (0.5%)-treated Whatman GF/C filter plates and washed three times with ice cold binding buffer containing 500 mM NaCl. Plates were counted by liquid scintillation.
Characterization of Nanobody binding to CXCR4—Following purification, receptor binding to characteristics for 238D2 and 238D4 were investigated on cell membranes from HEK293T cells transiently expressing CXCR4.
Data analysis and presentation—Data are presented as mean±S.E.M. from n independent experiments. Concentration response curves (E/[A] curves) were fitted to the Hill equation using an iterative, least-squares method (GraphPad Prism 4.0, GraphPad Software, San Diego, Calif.) to provide maximal inhibitory effects (Imax), half maximal effective (EC50) or inhibitory concentrations (IC50). Competition binding affinities and functional antagonist affinities (Ki) were calculated using the Cheng and Prusoff equation Ki=IC50/(1+[agonist]/EC50) (Cheng & Prusoff, 1973).

Experiment [4] addresses T3, CXCR4 (N119A) (Homo sapiens, UniProt P61073, N119A).
T3 construct: expressed in transfected cells; host or cells: HEK293T, transient; membranes in A4, whole cells in A5
The experiment is described as follows: Basal inositol phosphate accumulation in HEK293T cells transiently expressing CXCR4 (N119A). It counts as cell-based. The settings on record: ligand-induced alteration of basal inositol phosphate accumulation. The source says:
The functional profile of monovalent Nanobodies 238D2 and 238D4 as well as their bivalent fusion products L3 and L8 on CXCR4 (N119A) were investigated by measurement of the ligand-induced alteration of the basal inositol phosphate accumulation. HEK293T cells transiently expressing CXCR4 (N119A) show a 3-8 times higher basal rate of inositol phosphate accumulation compared to wild type CXCR4 or mock (which are virtually at the same level). […] The nanobody-induced reduction of basal inositol phosphate accumulation was antagonized by the selective neutral CXCR4 antagonist plerixafor confirming that the observed […] effects are mediated via CXCR4 (N119A).

The target of experiment [5] is T4, CXCR4 mutation library (Human CXCR4-short) (Homo sapiens, UniProt P61073, C218R/E179V/S351T).
T4 construct: expressed in transfected cells; host or cells: HEK-293T, transient, 384-well
T4 sequence (P61073 whole entry E179V/C218R/S351T): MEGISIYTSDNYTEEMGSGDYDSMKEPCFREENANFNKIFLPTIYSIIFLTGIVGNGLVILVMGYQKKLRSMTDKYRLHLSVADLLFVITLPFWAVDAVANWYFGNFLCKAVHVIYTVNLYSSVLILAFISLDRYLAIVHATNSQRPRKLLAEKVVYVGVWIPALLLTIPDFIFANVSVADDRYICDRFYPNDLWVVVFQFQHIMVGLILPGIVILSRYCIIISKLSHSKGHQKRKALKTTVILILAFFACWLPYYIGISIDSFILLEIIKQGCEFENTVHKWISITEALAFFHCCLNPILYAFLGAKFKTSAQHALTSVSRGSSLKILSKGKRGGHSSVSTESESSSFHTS
Put plainly: Shotgun mutagenesis epitope mapping, immunofluorescence on CXCR4 mutation library in HEK-293T. Particulars: residue E179; mutations C218R, E179V, S351T; normalized to wild type; 3 experiments (+/−range). Type of experiment: binding. An excerpt: Method: See e.g. Willis, et al. 2008. Virus-like particles as quantitative probes of membrane protein interactions. Biochemistry 47:6988-6990. In short, the method comprises the following steps:
Create comprehensive mutation library • Start with a cDNA in eukaryotic expression plasmid • Create library where every amino acid is individually mutated
Express each clone within living cells in 384-well microplates
Detect structure and/or function of proteins
• Parental plasmid: Human CXCR4-short (SEQ ID NO: 6, 352 amino acids) • Epitope tags: N-terminal Flag (to detect surface expression), C-terminal V5 (to detect full-length translation) • Cell types used for immunofluorescence assays: HEK-293T
The immunofluorescence assay conditions (to detect binding) were optimized for the nanbodies to be tested. In short, 384-well immunofluorescence (IF) assay using HEK-293T cells transiently was transfected with different concentrations of CXCR4 DNA. The plate was first incubated with different concentrations of either Nanobody 238D2 or 238D4, then with 9E10, and finally with Cy3. The commercially-available anti-CXCR4 MAb 12G5 was used as an IF control.
Mapping Nanobody Binding to CXCR4 Mutation Library: The entire library was screened in triplicate with each Nanobody. The data was background-subtracted and normalized to wild type reactivity and averaged across the repeats. Nanobody binding was plotted as a function of average surface expression, and measured by immunoreactivity of an N-terminal Flag epitope tag. Thresholds of 60% Flag and 30% Nanobody were used to identify critical clones. Using standard IF conditions, we identified 1 critical residue (2 critical clones). Using increased stringency assay conditions (high salt), we identified 5 additional residues (Tables C-3 and C-4).

T2 sequence (P61073 whole entry): as the sequence (P61073 whole entry E179V/C218R/S351T) above, with V179E, R218C, T351S counted along it
T1 sequence (P61073 whole entry): as the sequence (P61073 whole entry E179V/C218R/S351T) above, with V179E, R218C, T351S counted along it
T3 sequence (P61073 whole entry N119A): as the sequence (P61073 whole entry E179V/C218R/S351T) above, with N119A, V179E, R218C, T351S counted along it

B1: Nanobody 238D4 (VHH)
VHH: EVQLMESGGGLVQAGGSLRLSCAASGRTFNNYAMGWFRRAPGKEREFVAAITRSGVRSGVSAIYGDSVKDRFTISRDNAKNTLYLQMNSLKPEDTAVYTCAASAIGSGALRRFEYDYSGQGTQVTVSS
For the molecule B1, the pKi in experiment [1] came out at 8.55 pKi. The same molecule displayed an average nanobody reactivity in experiment [2] of 13.8%.

B2: 238D2: monovalent anti CXCR4 Nanobody, SEQ ID NO: 2 (protein)
VHH: EVQLVESGGGLVQTGGSLRLSCAASGFTFSSYAMSWVRQAPGKGLEWVSGIKSSGDSTRYAGSVKGRFTISRDNAKNMLYLQMYSLKPEDTAVYYCAKSRVSRTGLYTYDNRGQGTQVTVSS
modifications: Nanobody
On to B2, for which, in experiment [3] (maximal displacement), the “[^125I]-238D2 Displacem. (%)” value amounted to 97 ± 6%. Besides, in experiment [3] (receptor affinity), the “[^125I]-238D2 pKi” value is 8.41 ± 0.11. Also, in experiment [4], the “functional profile on CXCR4 (N119A) (in words)” value is recorded as “Only antagonistic but no significant inverse agonistic activities”. For the same molecule, the “% immunofluoresence, clone 414” value in experiment [5] is 71.1 (6.7) %.
